Assay results taken from article PMC9549385.

Target: human delta-opioid receptor (human) (UniProt P41143)

An Emax of ERK1/2 phosphorylation (% of SNC80 maximum, In-Cell Western) in CHO-K1-hDOPr cells, 5 min stimulation of 36 % SNC80 was found for [D-Ala2, D-Leu5]-enkephalin (peptide) in this work.
